The results in this text go back to PMC10484734, “TLK1-mediated RAD54 phosphorylation spatio-temporally regulates Homologous Recombination Repair” (Nucleic Acids Research, 2023).

For assay [1], the target named is T1, RAD54-T41, T59D (RAD54-T2D), recombinant (human, UniProt Q92698 1-747, T41D | T59D).
T1 construct: human RAD54 (RAD54L) with the phosphomimic changes T41D and T59D; also called NTD phosphomimic; source: recombinant, purified
T1 sequence (looked up): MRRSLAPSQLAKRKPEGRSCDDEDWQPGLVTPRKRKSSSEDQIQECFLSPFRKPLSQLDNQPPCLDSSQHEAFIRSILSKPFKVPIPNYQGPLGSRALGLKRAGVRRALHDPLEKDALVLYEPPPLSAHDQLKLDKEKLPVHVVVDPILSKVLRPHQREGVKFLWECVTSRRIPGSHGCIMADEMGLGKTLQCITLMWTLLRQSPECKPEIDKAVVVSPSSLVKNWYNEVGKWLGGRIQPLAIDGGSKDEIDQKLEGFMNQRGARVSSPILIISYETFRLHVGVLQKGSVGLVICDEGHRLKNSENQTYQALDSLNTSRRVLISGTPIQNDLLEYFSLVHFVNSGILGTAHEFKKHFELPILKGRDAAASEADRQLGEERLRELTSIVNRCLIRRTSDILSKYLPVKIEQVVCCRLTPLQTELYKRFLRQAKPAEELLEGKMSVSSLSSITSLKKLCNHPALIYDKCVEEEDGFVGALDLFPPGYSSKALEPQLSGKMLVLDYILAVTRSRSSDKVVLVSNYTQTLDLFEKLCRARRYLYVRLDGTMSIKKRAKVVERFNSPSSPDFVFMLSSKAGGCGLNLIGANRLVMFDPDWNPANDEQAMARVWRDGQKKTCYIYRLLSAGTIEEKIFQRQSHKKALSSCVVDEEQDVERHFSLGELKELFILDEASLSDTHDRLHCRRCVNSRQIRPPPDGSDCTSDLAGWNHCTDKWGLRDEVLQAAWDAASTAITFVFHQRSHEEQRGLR
Nature of the assay: pull-down; purified RAD54 forms with RAD51; reactions eluted from beads, eluate and supernatant on silver-stained gels, quantified; which protein was held on the beads is not told. The following applies: both partners purified.

In the next assay the target is T2, RAD54-T700D, recombinant (human, UniProt Q92698 1-747, T700D).
T2 construct: human RAD54 (RAD54L) with the phosphomimic change T700D; also called purified RAD54-T700D; CTD mutant; source: recombinant, purified
T2 sequence (looked up): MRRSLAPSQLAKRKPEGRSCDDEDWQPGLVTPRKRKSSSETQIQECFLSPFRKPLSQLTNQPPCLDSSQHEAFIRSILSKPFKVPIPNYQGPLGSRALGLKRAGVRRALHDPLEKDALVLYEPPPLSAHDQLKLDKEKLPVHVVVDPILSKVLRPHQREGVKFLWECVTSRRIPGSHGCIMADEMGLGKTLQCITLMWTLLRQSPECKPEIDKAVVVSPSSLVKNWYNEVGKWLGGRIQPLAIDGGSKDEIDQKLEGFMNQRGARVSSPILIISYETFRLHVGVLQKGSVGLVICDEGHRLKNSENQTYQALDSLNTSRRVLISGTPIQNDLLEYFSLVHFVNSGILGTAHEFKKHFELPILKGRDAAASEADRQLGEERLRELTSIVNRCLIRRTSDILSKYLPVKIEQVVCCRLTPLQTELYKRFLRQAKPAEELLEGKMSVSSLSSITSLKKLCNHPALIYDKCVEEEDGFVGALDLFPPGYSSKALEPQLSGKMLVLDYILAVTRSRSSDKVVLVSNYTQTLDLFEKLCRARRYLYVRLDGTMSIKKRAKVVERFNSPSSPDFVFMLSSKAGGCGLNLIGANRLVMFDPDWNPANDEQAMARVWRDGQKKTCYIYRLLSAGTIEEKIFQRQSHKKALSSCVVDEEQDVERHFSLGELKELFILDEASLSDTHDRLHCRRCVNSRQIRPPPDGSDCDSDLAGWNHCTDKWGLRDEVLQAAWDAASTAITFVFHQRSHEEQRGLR
The description is as above. The following applies: both partners purified.

B1: recombinant human RAD51 (natural protein, UniProt Q06609 1-339, looked up)
chain: MAMQMQLEANADTSVEEESFGPQPISRLEQCGINANDVKKLEEAGFHTVEAVAYAPKKELINIKGISEAKADKILAEAAKLVPMGFTTATEFHQRRSEIIQITTGSKELDKLLQGGIETGSITEMFGEFRTGKTQICHTLAVTCQLPIDRGGGEGKAMYIDTEGTFRPERLLAVAERYGLSGSDVLDNVAYARAFNTDHQTQLLYQASAMMVESRYALLIVDSATALYRTDYSGRGELSARQMHLARFLRMLLRLADEFGVAVVITNQVVAQVDGAAMFAADPKKPIGGNIIAHASTTRLYLRKGRGETRICKIYDSPCLPEAEAMFAINADGVGDAKD
notes: human RAD51 recombinase; also called rc-RAD51
As for B1, the binding result in assay [1] is “binds”; with RAD54-T700D, recombinant, “binds”.
